In the supplement of paper PMC10201428:
± gives the standard deviation of the averaged measurements.

Experiments:
[1] = test system: VchCAST RNA-guided transposition machinery (E. coli BL21(DE3) host, lacZ target); assay: relative integration efficiency (T-RL orientation) vs wild-type transposon end (log2 (normalized fold change)); transposon end mutated: right end (5 bp flank + 75 bp right end); higher = more efficient transposition
Summary of the method: (§1)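 Co-transformation of E. coli BL21(DE3) combined a pUC57 mini-transposon donor, holding barcoded pools of 1549 left-end or 1849 right-end variants, with a T7-driven plasmid encoding a CRISPR array, tniQ-cas8-cas7-cas6 and tnsA-tnsB-tnsC. After plating with 0.1 mM IPTG at 37°C for 18 h, input plasmids and genomic integration junctions were PCR-amplified and Illumina-sequenced across two biological output replicates, with four reference barcodes. Relative integration efficiency is the normalised, log-transformed output/input barcode fold change.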

[2] = test system: VchCAST RNA-guided transposition machinery (E. coli BL21(DE3) host, lacZ target); assay: relative integration efficiency (T-LR orientation) vs wild-type transposon end (log2 (normalized fold change)); transposon end mutated: right end (5 bp flank + 75 bp right end); higher = more efficient transposition
Summary of the method: as §1

Sequence	relative integration efficiency (log2) [1]	relative integration efficiency (log2) [2]
ACATTTGTTGATACACCCATAAATTGATAATTACAACCATATATTGATATCTCTCAGTGGGTATTTAACTATAACGCTCTGATCATAGTCAGACCAACATTGCTACGACCCGTATTCGCACCGACAC	-1.17 ± 0.28	2.39 ± 0.18
ACATTTGTTGATACAACCATAAAATGATAATTACTCTGATCACCCATAAATTGATAATTATCACACCCATAAATTGATATTGCCATAGTCAGACCAACATTGCTACGACCCGTATTCGCACCGACAC	-4.39 ± 0.071	0.359 ± 0.11
ACATTTGTTGATACAACCATAAAATGATAATTACACCCATACCGGGATAATTATCACACCCATAAATTGATATTGCCTCTGATCATAGTCAGACCAACATTGCTACGACCCGTATTCGCACCGACAC	-2.211 ± 0.0089	-2.1 ± 0.086
TGTAATGTTGATACAACCATAAAATGATAATTACACCCATAAATTGATAATTATCACACCCATAAATTGATATTGCCTCTGATCATAGTCAGACCAACATTGCTACGACCCGTATTCGCACCGACAC	-0.138 ± 0.063	-0.169 ± 0.51
ACATTTGTTGATACACCCATAAATTGATAATTACAACCATAAGTTGATATTTTTCACAACCATAAAATGATAATTACTCTGATCATAGTCAGACCAACATTGCTACGACCCGTATTCGCACCGACAC	-0.644 ± 0.31	-0.748 ± 0.17
ACATTTGTTGATACAACCATAAAATGATAATTACACCCATAAATTGATAATTATCACACCCATAAATTGATATTGCCTCTGATCATAGTCCAACCATAAAATGATAATTAAGACCAAGCACCGACAC	-0.312 ± 0.44	-0.498 ± 1.1
ACATTTGTTGATACAACCATAAAATCATAATTACACCCATCAATTGATAATTATCCCACCCCATTTAACTATAACGCTCTGATCATAGTCAGACCAACATTGCTACGACCCGTATTCGCACCGACAC	-4.292 ± 0.026	-0.633 ± 0.39
ACATTTGTTGATACAACCATAAAATGATAATTACTCTGATCATAGTCAGACCAACATTCACCCATAAATTGATAATTATCAGTGGGTATTTAACTATAACGGCTACGACCCGTATTCGCACCGACAC	-3.1 ± 0.26	-0.137 ± 0.076
ACATTTGTTGATACAACCATAAAATGATAATTAATACACCCATAAATTGATAATTATCAACAAACGCCCGGTCGCGGTACTCTGATCATAGTCAGACCAACATTGCTACGACCCGTATTCGCACCGA	-2.6 ± 0.28	0.59376 ± 0.00039
ACATTTGTTGATACAACCATAAAATGGTAATTCCACCCATAAATTGATAATTATCACACCCAATTTAACTATAACGCTCTGATCATAGTCAGACCAACATTGCTACGACCCGTATTCGCACCGACAC	-1.45 ± 0.25	2.06 ± 0.044
ACATTTGTTGATAACCAACGCCCCGTCGCCGGCCACCCATAAATTGATAATTATCAACAAACGCCCGGTCGCGGTACTCTGATCATAGTCAGACCAACATTGCTACGACCCGTATTCGCACCGACAC	-7.3 ± 0.31	-3.55 ± 0.48
ACATTTGTTGATACAACCATAAAATGATAATTACACCCATAAATTGATAATTATCACACAACGCCCGGTCGCGGTAAGAGGATCATAGTCAGACCAACATTGCTACGACCCGTATTCGCACCGACAC	-0.696 ± 0.091	2.32 ± 0.24
ACATTTGTTGATATCAACCATAAAATGATAATTACACCCATAAATTGATAATTATCACACCCATAAATTGATATTGCCTCTGATCATAGTCAGACCAACATTGCTACGACCCGTATTCGCACCGACA	-0.0259 ± 0.16	-1.376 ± 0.0096
ACATTTGTTGATACAACCATAAGTTGATATTTTCAACCATAAGTTGATATTTTTCACAACCATAAAGTGATATTTACTCTGATCATAGTCAGACCAACATTGCTACGACCCGTATTCGCACCGACAC	0.196 ± 0.011	-0.145 ± 0.024
ACATTTGTTGATACAACCATAAAATCATCATTACACCCATAAATTGATAATTATCACACCCAATTTAACTATAACGCTCTGATCATAGTCAGACCAACATTGCTACGACCCGTATTCGCACCGACAC	-3.16 ± 0.25	0.617 ± 0.13
